Experimental data from the Human Domainome abundance scans (Beltran et al. 2025).
± gives the uncertainty stated by the source.

B1: Histone-lysine N-methyltransferase SETD2, residues 2382 to 2430; numbered along this chain, Q9BYW2 (parent)
chain: SPPKPKTIVLPPNWKTARDPEGKIYYYHVITRQTQWDPPTWESPGDDAS

Variants of: B1
Assay: abundance fitness (aPCA) (normalised: wild type 0, dead -1); higher = more abundant; growth selection in yeast, the domain comes from the species named
Details: Homo sapiens

Q: With SPPKPKTVVLPPNWKTARDPEGKIYYYHVITRQTQWDPPTWESPGDDAS [I8V] as the variant, how does the abundance fitness read?
A: 0.201 ± 0.038

Q: With SPPKPKTWVLPPNWKTARDPEGKIYYYHVITRQTQWDPPTWESPGDDAS [I8W] as the variant, how does the abundance fitness read?
A: 0.001 ± 0.032

Q: With SPPKPKTYVLPPNWKTARDPEGKIYYYHVITRQTQWDPPTWESPGDDAS [I8Y] as the variant, how does the abundance fitness read?
A: -0.108 ± 0.092

Q: With SPPKPKTIALPPNWKTARDPEGKIYYYHVITRQTQWDPPTWESPGDDAS [V9A] as the variant, how does the abundance fitness read?
A: -0.187 ± 0.045

Q: Which abundance fitness does the source give for SPPKPKTICLPPNWKTARDPEGKIYYYHVITRQTQWDPPTWESPGDDAS [V9C] here?
A: 0.084 ± 0.09

Q: For SPPKPKTIDLPPNWKTARDPEGKIYYYHVITRQTQWDPPTWESPGDDAS [V9D], which abundance fitness is on record?
A: 0.486 ± 0.089

Q: With SPPKPKTIELPPNWKTARDPEGKIYYYHVITRQTQWDPPTWESPGDDAS [V9E] as the variant, how does the abundance fitness read?
A: -0.255 ± 0.09

Q: With SPPKPKTIFLPPNWKTARDPEGKIYYYHVITRQTQWDPPTWESPGDDAS [V9F] as the variant, how does the abundance fitness read?
A: 0.049 ± 0.086

Q: With SPPKPKTIGLPPNWKTARDPEGKIYYYHVITRQTQWDPPTWESPGDDAS [V9G] as the variant, how does the abundance fitness read?
A: -0.167 ± 0.037

Q: With SPPKPKTIHLPPNWKTARDPEGKIYYYHVITRQTQWDPPTWESPGDDAS [V9H] as the variant, how does the abundance fitness read?
A: -0.068 ± 0.095

Q: Which abundance fitness does the source give for SPPKPKTIILPPNWKTARDPEGKIYYYHVITRQTQWDPPTWESPGDDAS [V9I] here?
A: 0.132 ± 0.075

Q: For SPPKPKTIKLPPNWKTARDPEGKIYYYHVITRQTQWDPPTWESPGDDAS [V9K], which abundance fitness is on record?
A: 0.022 ± 0.042

Q: For SPPKPKTILLPPNWKTARDPEGKIYYYHVITRQTQWDPPTWESPGDDAS [V9L], which abundance fitness is on record?
A: -0.075 ± 0.046

Q: Which abundance fitness does the source give for SPPKPKTIMLPPNWKTARDPEGKIYYYHVITRQTQWDPPTWESPGDDAS [V9M] here?
A: 0.228 ± 0.08

Q: For SPPKPKTINLPPNWKTARDPEGKIYYYHVITRQTQWDPPTWESPGDDAS [V9N], which abundance fitness is on record?
A: 0.21 ± 0.11

Q: Which abundance fitness does the source give for SPPKPKTIPLPPNWKTARDPEGKIYYYHVITRQTQWDPPTWESPGDDAS [V9P] here?
A: -0.538 ± 0.15

Q: Which abundance fitness does the source give for SPPKPKTIQLPPNWKTARDPEGKIYYYHVITRQTQWDPPTWESPGDDAS [V9Q] here?
A: -0.097 ± 0.054

Q: With SPPKPKTIRLPPNWKTARDPEGKIYYYHVITRQTQWDPPTWESPGDDAS [V9R] as the variant, how does the abundance fitness read?
A: 0.025 ± 0.044

Q: For SPPKPKTISLPPNWKTARDPEGKIYYYHVITRQTQWDPPTWESPGDDAS [V9S], which abundance fitness is on record?
A: -0.093 ± 0.056

Q: For SPPKPKTITLPPNWKTARDPEGKIYYYHVITRQTQWDPPTWESPGDDAS [V9T], which abundance fitness is on record?
A: 0.123 ± 0.033

Q: For SPPKPKTIWLPPNWKTARDPEGKIYYYHVITRQTQWDPPTWESPGDDAS [V9W], which abundance fitness is on record?
A: -0.24 ± 0.07

Q: Which abundance fitness does the source give for SPPKPKTIYLPPNWKTARDPEGKIYYYHVITRQTQWDPPTWESPGDDAS [V9Y] here?
A: -0.362 ± 0.14

Q: With SPPKPKTIVAPPNWKTARDPEGKIYYYHVITRQTQWDPPTWESPGDDAS [L10A] as the variant, how does the abundance fitness read?
A: -0.759 ± 0.072

Q: For SPPKPKTIVCPPNWKTARDPEGKIYYYHVITRQTQWDPPTWESPGDDAS [L10C], which abundance fitness is on record?
A: -0.191 ± 0.059

Q: With SPPKPKTIVDPPNWKTARDPEGKIYYYHVITRQTQWDPPTWESPGDDAS [L10D] as the variant, how does the abundance fitness read?
A: -0.489 ± 0.15

Q: Which abundance fitness does the source give for SPPKPKTIVFPPNWKTARDPEGKIYYYHVITRQTQWDPPTWESPGDDAS [L10F] here?
A: -0.142 ± 0.1

Q: With SPPKPKTIVGPPNWKTARDPEGKIYYYHVITRQTQWDPPTWESPGDDAS [L10G] as the variant, how does the abundance fitness read?
A: -0.564 ± 0.035

Q: For SPPKPKTIVHPPNWKTARDPEGKIYYYHVITRQTQWDPPTWESPGDDAS [L10H], which abundance fitness is on record?
A: -0.255 ± 0.1

Q: For SPPKPKTIVIPPNWKTARDPEGKIYYYHVITRQTQWDPPTWESPGDDAS [L10I], which abundance fitness is on record?
A: -0.026 ± 0.12

Q: For SPPKPKTIVKPPNWKTARDPEGKIYYYHVITRQTQWDPPTWESPGDDAS [L10K], which abundance fitness is on record?
A: -0.553 ± 0.2

Q: Which abundance fitness does the source give for SPPKPKTIVMPPNWKTARDPEGKIYYYHVITRQTQWDPPTWESPGDDAS [L10M] here?
A: -0.314 ± 0.1

Q: For SPPKPKTIVNPPNWKTARDPEGKIYYYHVITRQTQWDPPTWESPGDDAS [L10N], which abundance fitness is on record?
A: -0.46 ± 0.15

Q: For SPPKPKTIVQPPNWKTARDPEGKIYYYHVITRQTQWDPPTWESPGDDAS [L10Q], which abundance fitness is on record?
A: -0.529 ± 0.32

Q: For SPPKPKTIVRPPNWKTARDPEGKIYYYHVITRQTQWDPPTWESPGDDAS [L10R], which abundance fitness is on record?
A: -0.647 ± 0.06

Q: With SPPKPKTIVSPPNWKTARDPEGKIYYYHVITRQTQWDPPTWESPGDDAS [L10S] as the variant, how does the abundance fitness read?
A: -0.684 ± 0.046

Q: Which abundance fitness does the source give for SPPKPKTIVTPPNWKTARDPEGKIYYYHVITRQTQWDPPTWESPGDDAS [L10T] here?
A: -0.431 ± 0.11

Q: For SPPKPKTIVVPPNWKTARDPEGKIYYYHVITRQTQWDPPTWESPGDDAS [L10V], which abundance fitness is on record?
A: -0.242 ± 0.042

Q: With SPPKPKTIVYPPNWKTARDPEGKIYYYHVITRQTQWDPPTWESPGDDAS [L10Y] as the variant, how does the abundance fitness read?
A: -0.249 ± 0.12

Q: Which abundance fitness does the source give for SPPKPKTIVLAPNWKTARDPEGKIYYYHVITRQTQWDPPTWESPGDDAS [P11A] here?
A: -0.388 ± 0.069

Q: With SPPKPKTIVLCPNWKTARDPEGKIYYYHVITRQTQWDPPTWESPGDDAS [P11C] as the variant, how does the abundance fitness read?
A: -0.694 ± 0.11

Q: With SPPKPKTIVLDPNWKTARDPEGKIYYYHVITRQTQWDPPTWESPGDDAS [P11D] as the variant, how does the abundance fitness read?
A: -0.156 ± 0.06

Q: Which abundance fitness does the source give for SPPKPKTIVLEPNWKTARDPEGKIYYYHVITRQTQWDPPTWESPGDDAS [P11E] here?
A: -0.5 ± 0.069

Q: Which abundance fitness does the source give for SPPKPKTIVLFPNWKTARDPEGKIYYYHVITRQTQWDPPTWESPGDDAS [P11F] here?
A: -0.43 ± 0.064

Q: For SPPKPKTIVLIPNWKTARDPEGKIYYYHVITRQTQWDPPTWESPGDDAS [P11I], which abundance fitness is on record?
A: -0.84 ± 0.39

Q: Which abundance fitness does the source give for SPPKPKTIVLKPNWKTARDPEGKIYYYHVITRQTQWDPPTWESPGDDAS [P11K] here?
A: -0.281 ± 0.055

Q: With SPPKPKTIVLLPNWKTARDPEGKIYYYHVITRQTQWDPPTWESPGDDAS [P11L] as the variant, how does the abundance fitness read?
A: -0.279 ± 0.054

Q: For SPPKPKTIVLMPNWKTARDPEGKIYYYHVITRQTQWDPPTWESPGDDAS [P11M], which abundance fitness is on record?
A: -0.374 ± 0.049

Q: With SPPKPKTIVLNPNWKTARDPEGKIYYYHVITRQTQWDPPTWESPGDDAS [P11N] as the variant, how does the abundance fitness read?
A: -0.371 ± 0.076

Q: Which abundance fitness does the source give for SPPKPKTIVLQPNWKTARDPEGKIYYYHVITRQTQWDPPTWESPGDDAS [P11Q] here?
A: -0.186 ± 0.084

Q: Which abundance fitness does the source give for SPPKPKTIVLSPNWKTARDPEGKIYYYHVITRQTQWDPPTWESPGDDAS [P11S] here?
A: -0.453 ± 0.11

Q: For SPPKPKTIVLTPNWKTARDPEGKIYYYHVITRQTQWDPPTWESPGDDAS [P11T], which abundance fitness is on record?
A: -0.682 ± 0.13

Q: With SPPKPKTIVLVPNWKTARDPEGKIYYYHVITRQTQWDPPTWESPGDDAS [P11V] as the variant, how does the abundance fitness read?
A: -0.689 ± 0.11

Q: With SPPKPKTIVLWPNWKTARDPEGKIYYYHVITRQTQWDPPTWESPGDDAS [P11W] as the variant, how does the abundance fitness read?
A: -0.811 ± 0.12
